Our source for the stoichiometry N values is doi:10.1101/460097.

Test [1] addresses mouse (Mus musculus) PCDH15 EC10-MAD12 produced in mammalian cells (mouse (Mus musculus)). In words: SEC-MALS. In general terms: In gel filtration, larger molecules generally elute earlier.
Test [2] has the same target. The experiment in a line: AUC.
Test [3] concerns the target mouse (Mus musculus) PCDH15 EC10-MAD12, refolded from bacteria (mouse (Mus musculus)). The experiment in a line: SEC-SAXS.
Test [4] shares this target. The experiment in a line: SEC-MALS.
The target in test [5] is pig (Sus scrofa) PCDH15 EC10-MAD12 (pig (Sus scrofa)). In words: SEC-SAXS.
Test [6] shares this target. In words: SEC-MALS.
For test [7] the target is unchanged. The experiment in a line: AUC.

The stoichiometry N is a count of units in the complex or per binding partner. For “mouse (Mus musculus) PCDH15 EC10-MAD12 produced in mammalian cells (domain or fragment)”, the stoichiometry N in test [1] and in test [2] was 2 in each case.

As to “mouse (Mus musculus) PCDH15 EC10-MAD12, refolded from bacteria (domain or fragment)”, the stoichiometry N in test [3] and in test [4] was 2 in each case.

In the case of “pig (Sus scrofa) PCDH15 EC10-MAD12 (domain or fragment)”, the stoichiometry N in test [5], in test [6] and in test [7] was 2 in each case.
